The results in this text go back to the DeepSol protein solubility set.

A short description of the data set: soluble on expression in E. coli; label from the status in PepcDB or PDB records.
Turning to “MGSDKIHHHHHHVKLHVIHYNDLHSHFDMWPRYMSFMKEHRTYDSLVFDLGDHADRVAPATEATQGKINTHLLNELSPTAVTIGNNEGITFPHDWLAELYSDATFPVLVSNLSAPFAKAGMIQELPTGKVGIFGLTAPYYELYELLGWSIENPFEAAAREIEALRDQVDVLICLSHLGFYQDEDLAERFPELDLIIGSHTHHVLDDGVVRNGVLIAQAGKHGQYAGEIYLNTDTGEKEAVLHPLESYPEDEATAVLLDKEQYLAERQMKQPIGRTSGLANDWFNPSPFTQLLADTMRDWCQADLACVPAGMLLGSLSPGPVSSYDLHRLCPHPINPCKVTMTGKELKQFIAEVDTNRFEQLKVRGLGFRGKLMGKMHYAGNRQHLDDAKHYTVVLPDMFTFGPLFPEIKEMPKEYFMPELLRDLLFDRLSEKSEFGELPIRKH”, the “soluble on expression in E. coli” value is recorded as “not soluble”. Then “MGSDKIHHHHHHMAIACVFTRASCGVEAPRVTVEVHLSNGLPAFNLVGLPETSVKEAKERVRSALINAGFEFPQKRITVNLAPADLPKQGGRYDLPIAVGILAASNQVPAKALHQCEFVGGLALSGQIRPCSGLLPAIIAARNDQHHFFMPIENRHEAELVGYKHSYFVAHLQNLAAFLHGQAQLPLLDTLPEWIEEEIQAQSSLCMSDVIGQYQAKHGLEIAAAGGHNMLFIGPPGTGKSMLANRIIPLLPKLTYDEAIEVAAIHSVAGLHVKPQNFLNRPFRSPHHTSSSIALIGGGSHPKPGEISLAHRGILFLDEIAEFPRKVLDCLREPLETGQVEISRAAAKLTFLSRFQLIAAMNPSPCGDTERARSTPDQIQRYLSRLSGPFLDRFDLTVDVPKLPAGTLTQQHQPSESSVEIAKRVKQARDLQLSRSGVLNSELTPKQLKQDGAITQPDLAFLEQSVVSLGLSVRSFHRIQRVSRTIADLQQSPTTERSHIAQALGYRAMDRLLAKLNQQ”, with “not soluble”; and “MAQSSAQLLFDESGQPFIVMREQENQKRITGVEAVKSHILAARAVANTLRTSLGPRGLDKMLVSPDGDVTITNDGATIMEKMDVQHHVAKLMVELSKSQDHEIGDGTTGVVVLAGALLEEAEKLIDRGIHPIKIADGFDLACKKALETLDSISDKFPVENRERLVETAQTSLGSKIVNRSLRQFAEIAVDAVLSVADIESKDVNFEMIKMEGKVGGRLEDTILVKGIVIDKTMSHPQMPKELKNAKVAILTCPFEPPKPKTKHKLDITSTEDFKALRDYERETFETMIRQVKESGATLAICQWGFDDEANHLLQANDLPAVRWVGGPEIELLAIATNARIVPRFSELSKEKLGTAGLVREITFGAAKDRMLSIEQCPNNKAVTIFVRGGNKMIIDEAKRALHDALCVIRNLVRDSRIVYGGGSAELAAAIQVAKEADRIDGIEQYAFRAFADALESIPMALAENSGLAPIDALSDLKAKQIETGKSSLGIDAVFAGTNDMKEQKVIETLLSKREQISLATQVVRMILKIDDVRVPDDERMGY”, with “not soluble”; and “RIKEKTISHWVAMQGIAMIQLNLLRTSQSQESTQATTMLGQKWYWRAKISPTPIKRMQQITISVSSKQAGPFREELIAFRYLP”, with “not soluble”. Consider “MALKVIKISRVSPATASVDPLIVPLSFFDLQWLKLNPTEQVFFYKLTESSSSRDVFYSSILPKLERSLSLILTHFRLFTGHLKWDSQDPKPHLVVLSGDTLSLTVAETDADFSRISGRGLRPELELRPLIPELPIYSDSGAVVSLQVTLFPKQGFCIGTTAHHVVLDGKTAEKFNKAWAHTCKHGTIPKILPTVLDRSVVNVPAGLEQKMLELLPYLTEDDKENGRTLKLPPVKEINAKDNVLRITIEISPENIEKLKERAKKESTRAELHLSTFVVTFAHVWTCMVKARSGDPNRPVRFMYAADFRNRLEPPVPVTYFGTCVLAMDFYKYKAKEFMGEDGFVNTVEILSDSVKRLASQGVESTWKVYEEGTKTMKWGTQLLVVNGSNQIGMYETDFGWGRPIHTETMSIYKNDEFSMSKRRDGIGGVEIGISLKKLEMDTFLSLFYKWIGN”, for which the “soluble on expression in E. coli” value is “soluble”. Take “MKKWMAGLFLAAAVLLCLMVPQQIQGASSYDKVLYFPLSRYPETGSHIRDAIAEGHPDICTIDRDGADKRREESLKGIPTKPGYDRDEWPMAVCEEGGAGADVRYVTPSDNRGAGSWVGNQMSSYPDGTRVLFIVQLEHHHHHH”: the “soluble on expression in E. coli” value is on record as “soluble”. On to “MPREYEFAEKILFTEEEIRTRIKEVAKRIADDYKGKGLRPYVNPLVLISVLRGSFMFTADLCRALCDFNVPVRMEFICVSSYGEGLTSSGQVRMLLDTRHSIEGHHVLIVEDIVDTALTLNYLYHMYFTRRPASLKTVVLLDKREGRRVPFSADYVVANIPNAFVIGYGLDYDDTYRELRDIVVLRPEVYAEREAARQKKQRAIGSADTDRDAKREFHSKY”, for which the “soluble on expression in E. coli” value is recorded as “soluble”. With “MQRIVIVGGGVGGTMLANLLVVRLYPEILGGEVQVLLISDSPDHYYKPAFMYVAFEQFFLEDLKRPQRSLLRPEVMFQLDRVDRFDFPRQELQTRSGRRHGYDYLVIATGCVPAPERIEGLKEAGDHFYQYQPARRLAERLASLESGRVFITVSFPRTPNVPHQCGIAPVETTLMLDDYLRRRGVRERVEIVYTYPTTAQLLRNCLFLQRPTCEILPSLFEQRGIRFQRGFTLARVDPERRIAYSEEGDEQPFDLLMATPPIHAVDAVRECGLPQAAADEGWLPTNHETLQVYGVDRVYTLGDTVDLPVSKAGGACHNQAPVVASNIAAEIRLGKPCAIYDGRVQAVAQMGLNAGMPLWYDYRHDVKPTPPTKLGGLLRQGFNRGLYWAVARGMLLEHHHHHH”, the “soluble on expression in E. coli” value was “soluble”. With “MNRSIDSIIAKKVSHDVGILIFQYLNDIEPLIQQSLTAAKLKDFYGLKGKYSKGRFVCPFHHGADNPTSLSMNDNKRCFHCNACGKSGTYLEFIMYMQNISGRNSYNDAKIFAANHFTKLNLGFNSIADFEQKLKDKILERYRKTNSLRYTDYYDIWLLPERYFSSKEQSQVRQYQEEQQTKPSLEVSLSNSTNKPGFILESLDLEMTIRHLKAQNIIVNGITDYDEAVQVAKNSKLIKDFTKNADKLNSVDKLTDYMSKKYNIDIDTALKYGLIFFDKSSQHQLYYSDFFMLNNRVLFPVRDHETGIIVGYQCRRTDLSAPRHYKYLNITDYQDNLITNENGTTYRDFVPFKVGNFLFNLYELKGKCINTLWITEGIADAIKLSSMGYDAVSLGQANLTDYQIYLIDKYFGKDVTLNLFFDNDDNKIGQNKSIAAAYRLWQFGFRNIRIINTFKEMGKDITDCSVKLHDDDMLRLFINHWEKQAYSFAPASNEDLSALLKTGLYSESEILFIDPRDVERIISFGEMLNKYLDFKNMTYQQLKLLKKLCSFKEDEIKILLSLSTKDFLDVQNTNEQSCHKEQL”, the “soluble on expression in E. coli” value is “not soluble”. With “MTTIDLNCDLGESFGAYKMGNDDEILPFVSSINVACGFHAGDPSIMRQTVEKALEHNVAIGAHPGFPDLIGFGRRNMNVSASEVYDYVLYQTGALDAFVKAAGGKMQHVKPHGALYNMAASNPEIADAIAKAIYHINPSLLLYGLANSEAFIQAAEKYKVTLVQEAFADRTYKQDGTLTSRTEENALIKDEDEAIKQVLQMVKEGYVNSVNGEKVAVQAQTICLHGDGEKAVQFAERIYRTFKLNGISICAPKLEHHHHHH”, the “soluble on expression in E. coli” value was “soluble”. On to “MGSDKIHHHHHHMIRKIVEIDQEKCNGCGICVPACAEGAIRIENGKAVLAADNLCDGLGACLGECPLDAIRIIERDADEFDEAAVEAHLGQTSRESHHAAHQPAPVHGGCPGSRAMVLDRPATESVRDVPRQESRLRQWPVQLHLVPTSAPYFRNADLLIAADCVPFAYADFHREFLDGRAVVVGCPKLDDNRFYTEKLTELIRVNDLKSITVVRMEVPCCGGIVMAARQALAASSKDIPLREVTVGISGELKGA”, for which the “soluble on expression in E. coli” value is given as “not soluble”. As to “KHPNNAIIIGDNLDALKLLKSAYSEKIKMIYIDPPYNTGNDEFIYPDNFRQDYQKILREVGLMEIDENGKEIESESLKFFKNTQGSGTHSGWLSFMLPRLKLARDLLKEDGVIFISIDDNECANLKILCDEIFGEDNFVGDFIRKTKSTTNDAKIGLNYQHEFLLCYAKDKNYTNLLGGEKNLENYKNPDNDPNGAWINDNPSAKSGNMKTGYFGVTNPYTNKVDYPPVGMFWRFSQNTIQKHIDEGRICFKKEHKDNERGFIYKRYLKDLKTTQKTFDSLIFSDNCYMNQAATKELLNLGMGEYFTYPKGVEFMKKIILHSTTPNEGDIILDFFAGSGTTVHAVMELNAEDKGNREFILVQIDEEIKEDESAYDFCKKELKSAKPVISDITIERVKRAAQKISQLSKDSGLDLGFKVYTLQDKVQII”, the “soluble on expression in E. coli” value is reported as “not soluble”. “LFTESAKAVLAIAQEEAKYFRHQSVGSEHLLLALVLEPNGIAGKTLRQLNTDTEDIREEIEHLSGYGTMQSPMGNNNLYLPYSPRAKQIFAYAGDEAKRLGAQKIGTEHLLLGLLRDEEILASRILVNLGLSLSKMRQLLLKKMG”: the “soluble on expression in E. coli” value was “not soluble”. Then “MSLKQLFLIIGAPGSGKTTDAELIAKNNSETIAHFSTGDLLRAESAKKTERGLLIEKFTSQGELVPLEIVVETILSAIKSSGKGIILIDGYPRSVEQMQALDKELNAQNEVILKSVIEVEVSENTAKERVLGRSRGADDNEKVFHNRMRVFLDPLGEIQNFYKNKKVYKAIDGERSIEEIVGEMQEYILSFGNEGHHHHHH”, with “soluble”; and “MSGLIPAHGLSFRVDASTLTGQSSLLRASLGLDDVHLQVSAITEVKSVFVADAFDRGLVTVTADKEIAIWFPPNSATEQELFVRTLSAAMNGDGPIPQPVPHLDFVAVDVETTNSDWGSICQIGAAKVRDGHVVETKEWLCTPPGDLNSFDEANIAIHGITADMVATAPSFAECYDQFADFAGDLPLAAHNAQFDMTAFLRATQAADIRLRTTNFGCSLAAARAAHLPIANHKLPTVSQHLHVELRNHHNACADAEACAGILIALTQRLNTEITDFTSAFNMLGFHTGQLSDARVYPVLKVRGASSTPASPDSAAPAIQTPPAEKPRKATKAARAPWSKVATPETIPDPNPDADPQGRLFGQSVTLSGDFAPYDKGELWAGIANQGGIIGKNVTKKTTILVCGPWDKPTSKQKRAEELRAKGQEIDLWTQEDLFAQLGLNPEDEQPPF”, with “not soluble”.

For “MRGRQKIAIVGAGLGGAAAATLLQQAGFDVEVFEQAPAFTRLGAGIHIGPNVMKIFRRMGLEQKLELMGSHPDFWFSRDGNTGDYLSRIPLGEFARREYGAAYITIHRGDLHALQIEAIQPGTVHFGKRLEKIVDEGDQVRLDFADGTHTVADIVIGADGIHSKIREELLGAEAPIYSGWVAHRALIRGVNLAQHADVFEPCVKWWSEDRHMMVYYTTGKRDEYYFVTGVPHEAWDFQGAFVDSSQEEMRAAFEGYHPTVQKLIDATESITKWPLRNRNPLPLWSRGRLVLLGDACHPMKPHMAQGACMAIEDAAMLTRCLQETGLSDHRTAFALYEANRKERASQVQSVSNANTWLYSQEDPAWVYGYDLYGQQLESGEAALEHHHHHH”, the “soluble on expression in E. coli” value is “soluble”.

Turning to “LGSPMAYFVENFWGEKNSGFDVLYHNMKHGQISTKELADFVRERATIEEAYSRSMTKLAKSASNYSQLGTFAPVWDVFKTSTEKLANCHLDLVRKLQELIKEVQKYGEEQVKSHKKTKEEVAGTLEAVQTIQSITQALQKSKENYNAKCVEQERLKKEGATQREIEKAAVKSKKATDTYKLYVEKYALAKADFEQKMTETAQKFQDIEETHLIHIKEIIGSLSNAIKEIHLQIGQVHEEFINNMANTTVESLIQKFAESKGTGKERPGLIEFEECD”, the “soluble on expression in E. coli” value is listed as “soluble”. For the sequence “MPGAPSFIALDWGTSSLRAWRFGESPNPQEKREFPWGIMKLPSQAATREDAFHDTFLRVCGDWLAQTPCPVLACGMLGSAQGWQSAAYLPCPVTLEGLAKQLTPVIHQQQTMLHIIPGVIKEGEMPEVMRGEETQIFGAISMEPALQNAIHQGMPVLIGLPGTHAKWAVVENNTITDFRTFMTGELFDVLSRHSILGATMHPGDEPHWDAFTHGLTAAQEHHQTGLLSTLFSTRSRLLTSNLTSSSQGDYLSGLLIGHELCGLASSLLRDLPATTPIALIGSANLNSRYSQAFSHVFPGRQIHAIPNATEQGLWRIAHAAGLLSTNARECTHAI”, the “soluble on expression in E. coli” value was “not soluble”.
